Measurements from IntAct's records for PubMed 10779557.

B1: Lymphokine-activated killer T-cell-originated protein kinase (Homo sapiens), Q96KB5 (parent)
chain: MEGISNFKTPSKLSEKKKSVLCSTPTINIPASPFMQKLGFGTGVNVYLMKRSPRGLSHSPWAVKKINPICNDHYRSVYQKRLMDEAKILKSLHHPNIVGYRAFTEANDGSLCLAMEYGGEKSLNDLIEERYKASQDPFPAAIILKVALNMARGLKYLHQEKKLLHGDIKSSNVVIKGDFETIKICDVGVSLPLDENMTVTDPEACYIGTEPWKPKEAVEENGVITDKADIFAFGLTLWEMMTLSIPHINLSNDDDDEDKTFDESDFDDEAYYAALGTRPPINMEELDESYQKVIELFSVCTNEDPKDRPSAAHIVEALETDV

Variants of: B1
Settings: with dlg1_human DLG1, Q12959
Chain of dlg1_human DLG1, Q12959 (Q12959 whole entry, looked up): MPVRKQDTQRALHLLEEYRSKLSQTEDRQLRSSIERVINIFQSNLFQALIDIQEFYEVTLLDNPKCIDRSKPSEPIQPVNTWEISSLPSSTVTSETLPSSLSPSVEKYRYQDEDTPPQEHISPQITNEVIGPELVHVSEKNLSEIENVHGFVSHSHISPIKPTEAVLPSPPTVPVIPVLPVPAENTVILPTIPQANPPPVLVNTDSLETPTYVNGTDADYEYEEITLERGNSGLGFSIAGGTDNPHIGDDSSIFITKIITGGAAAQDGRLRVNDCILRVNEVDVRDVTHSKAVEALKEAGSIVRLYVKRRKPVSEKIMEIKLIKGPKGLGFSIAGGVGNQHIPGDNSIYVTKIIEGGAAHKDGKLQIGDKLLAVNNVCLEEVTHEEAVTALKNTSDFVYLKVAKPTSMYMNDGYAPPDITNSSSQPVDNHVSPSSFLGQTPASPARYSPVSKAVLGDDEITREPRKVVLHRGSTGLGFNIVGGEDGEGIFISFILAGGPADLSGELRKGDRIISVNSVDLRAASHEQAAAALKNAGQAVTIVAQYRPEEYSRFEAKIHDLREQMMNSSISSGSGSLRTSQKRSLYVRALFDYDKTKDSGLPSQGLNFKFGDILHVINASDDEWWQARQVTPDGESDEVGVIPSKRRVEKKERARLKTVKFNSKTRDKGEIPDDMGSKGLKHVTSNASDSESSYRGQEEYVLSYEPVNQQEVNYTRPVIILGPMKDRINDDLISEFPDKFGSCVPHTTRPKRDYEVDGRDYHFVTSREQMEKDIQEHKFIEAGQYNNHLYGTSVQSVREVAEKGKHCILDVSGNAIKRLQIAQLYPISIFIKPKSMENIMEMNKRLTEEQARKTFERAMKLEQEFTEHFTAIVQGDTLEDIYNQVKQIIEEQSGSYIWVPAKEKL

Variant | effect of a mutation on the interaction
V322A | disrupting interaction
T320A | decreasing interaction
